The values that follow come from a protein production outcome set (Wang et al. 2014).

A short description of this series: label from the status in PepcDB records.

Take “MTKSHSQDQESTLLRLEHAQAILQRDAALAHIEHMRRSRSWRLTRPLRMLMQLLRHGVINDESEYPTHLPSLVQPLPASIPLEPDIVEDSTSGSAAQHFDLLCFANIDWSARFQRPQQLMTQFAIQGYRVFYIILSPLPAAERPYTAHPVAPGVFEITLRGHARQDYYATCITEGNLRANAEALQALVSDYRIKTAVSVVHLPYWTRLALHLRKAYGWPVQYDCMDEWQDFPNIGQPLLAQEQVLVEQADLVTVTASVLYDKWASTSRRCQLVRNGVDFDFFARCCTPNTLLEELQGPIIGFYGALAEWVDFELVAAIARQRPEWNLVLIGDVFVRDLAGLDRLPNVHLLGRKPYSQMPQYLYHFDVCIIPFRLYNVTHAVDPVKFYEFISAGKPVVAVPLLEMQIYEPYLYFADGPSAFVTQIERALGETDLQRWDQRLALARENDWRQRFEDTRDALVELFPKVSVIIVTYNNVQLTRGCIDSLLRNCAYPNLQLIIVDNASQDSTRNYLRYLARSEPNVSIVLNEQNLGFAAANNQGLRLAQGHYLVLLNNDTVVPKGWLAPLLRHLDDPEVGLVGPTTNAVGNEARVSIDYQDLDDMEDFADRRASQYRGRCFDIPMLAMFCVAMRREVLDQVGWLDEAFGIGMFEDDDYSRRVQAAGLRTVCAEDSYIHHYGQASFKALIASGEYQRLWDKNQAYFESKWGPWQPHRQARRRANADATKMKLTD”: the protein production entry is reported as “failed”.
The entry for “MTKSQQKVSSIEKLSNQEGIISALAFDQRGALKRMMAEHQSETPTVEQIEQLKVLVSEELTQYASSILLDPEYGLPASDARNNDCGLLLAYEKTGYDVNAKGRLPDCLVEWSAKRLKEQGANAVKFLLYYDVDDTEEINIQKKAYIERIGSECVAEDIPFFLEVLTYDDNIPDNKSAEFAKVKPRKVNEAMKLFSEDCFNVDVLKVEVPVNMNFVEGFSEGEVVYTKEEAAQHFRDQDAATHLPYIYLSAGVSAELFQDTLKFAHDSGAQFNGVLCGRATWSGAVKVYIEEGEQAAREWLRTVGFKNIDDLNTVLKTTATSWKNK” is “not failed”; for “MTKTKFEKVLLIVNPKAGQGDLHTNLTKIVPPLAAAFPDLHILHTKEQGDATKYCQEFASKVDLIIVFGGDGTVFECTNGLAPLEIRPTLAIIPGGTCNDFSRTLGVPQNIAEAAKLITKEHVKPVDVAKANGQHFLNFWGIGLVSEVSNNIDAEEKAKLGKIGYYLSTIRTVKNAETFPVKITYDGQVYEDEAVLVMVGNGEYLGGIPSFIPNVKCDDGTLDIFVVKSTGIQAFKDYIGKKLFEDSNENDIFHVKAKSIHIETEEEKEVDTDGESSLHTPCQIELLQGHFTMIYNPAVV” it is “not failed”; for “MTKTSSGLKIMFRKIKLEVVRMDLSTIFASLLGLFLSLLTTGVYRYYSKPKIHKTVGVVILNPDKVDAKKIPPNLPEGLRRVTNSLEQELVLKLKKDQQKKAMLLIKISIIGIIISTIGLILGQ” it is “failed”.
As for “MTKVHPKFPSTCEESLCDSKAAVVLTVWKKSLLFNCDGFTVYNANGELVFRVDNYMNCPRDNIVLMDASGFPLLSIRRKKLSLGDCWMVYDGETERDPIFTARKNVSIISNRKSLAWVSAKKTVLYEIEGSYGQRSCKILDERRNKKKTAEIKRKETVIGGVAFGKDVYKLIVESEMEPRVAMALTIILDQMFRSS”, the entry is “failed”.
In the case of “MTKYGVVGTGYFGAELARFMSKVEGAKITAIYDPVNAAPIAKELNCVATATMEALCTHPDVDCVIIASPNYLRKAPVIAAAKAGKHVFCEKPIALNYQDCKDMVDACKEAGVTFMAGHVMNFFHGVRHAKALIKAGEIGEVTQVHTKRNGFEDVQDEISWKKIRAKSGGHLYHHIHELDCTLFIMDETPSLVSMAAGNVAHKGEKFGDEDDVVLITLEFESGRFATLQWGSSFHYPEHYVLIEGTTGAILIDMQNTAGYLIKAGKKTHFLVHESQAEDDDRRNGNISSEMDGAIAYGKPGKRTPMWLSSIMKLEMQYLHDVINGLEPGEEFAKLLTGEAATNAIATADAATLSSNEGRKVKLTEILG”, the protein production entry is “failed”.
Turning to “MTLAPPLPHSNSPCSPCCMDPLLRHGFCLDMSGEIYPVIRLPCSGAAKGVHVMIRFIVKLLLCALVLLPLPAFATSGADTGPDNRLLRMGVRAHGGFTRLSMAFERDIAPVLHQLSGNRVRLVFSNTVGGRWKKLRSYRDAHVEGVVVAPRGNDLMVTVTIKGDPRGVRVSTSPGAGVVSLDVGASLAPRRSPPLAQGREGIKVGVEQLITTFDPPFKSEIPFTPTDRRVLEAMVPPAEAALIMDGEAALYEGNGSEAAEIFAGIGTNSPGRPLALYRLGEANYLLQKYGDALRFFREAERQWPVFLTRSPSTAFCYADSVARSGDLAGGRRLLGSLIAGLADKKYAPALLVRMADILARQGKDQEALAIYRNVADNFTGSKGSWQARMKLADRRLLALEPAAYSSLVKDYLEIYERGTDFGLREQGLFKAALLLSLYGDADQAFARVAEYEKKFPRGMYVSIAKGMREELLVPVYRRITRAGDNEALVKLALENRDYLGRVLAEDDFIKNLSAAFADLGRIKEEVGLYANLAIREQNRVYAPELYRRILHDAEQLGDPTLMEKAAGEFVERFPAHPWVQRFREELAAVEYNRGDFQRVVGRLSGMLASGTRPEYAESLYYLGKSLDASGNRRDAERAMLLFLAELRRREMSSPLAADASYVAATARLSRGDRKGAKEILRAAGEASPEERDPFLYKLGEIARSEGRYEEAAHYLRTVVKEGKDPDWRDMASRLLADMELTGMVRKSK”, the protein production entry is “failed”.
The entry for “MTLAPRHLRIEQRGRVLQVLLDNPPANFLTTAVMQELADLLEDLEQRQDIGAVILSGAADGVFLTHFDVDEIERAVAPITFSMPAWLTRLLLESESLLRHLPGARKLLRRTLLAGVADMNLFHEVTAHMRRMDKVFIAAINGLALGGGCELALACDLRLMAEDDQVERFLGQPEVLIGLIPGGGGTQMLARSLGVARALELCLEGQLLEPRQALALGLVNGLAPAEELLEAADALAQRLSRRSPQAVRLIKRSIYQAASRDWTEGMASEKAGFLSAASQGNTRRAMREYIERVRTITREERPFRRADFDDLTEGNAID” is “failed”; for “MTLDNRAFLKQSSKKLLFRFAVPAIFSLLVNELYNMVDTVFAGRYIGENAIGAMTIAFPIQKILIAMGLLIATGASTYAARVIGEKNYKELKKIVINSCALTIVSIISISFIIFQFKSSILYSLGASDNTYPMAVQYISIILFGSIFMCLASVMSYIMVSLGKTKTLLYTNIVGVLLNIILNYVLVIQLHMGIRGSGIATVLSQLAAFVVALVQFAYMNKKQNFKFFENISTNIISGDIIREIVLVGFSTFIIEIADAVVSAVLNNVLYAGGGDSAIIMLGVITKVYMFMFITVIGISSGMQPIVGYNFGAGNYKKAKDILKFSLKTVIIISAFVWVGFIIWAQPLIGFFLKDAQLVSKTVSAFRIVISMLPLLGIYYVAIYYYQAIGEARISFILSIYRELIMFIPMAVILFKIVGINGVFIAYPLTDIIVILTSVYFIRRAFKEQFAEESIPKRVGARA” it is “failed”; for “MTLFAEYNSPYLFAIAFVFFIGVLEMISLIFGHFLSGALDAHLDHYDALSSGPAGQALHYLNIGRVPALVVLCLLAGYFGLFGILIQHGGIMLWQAPLSNLLLVPLSIVLSVFAVHYSGKILAPWLPRDESSALREEEFIGGMAIITGHAAVAGTPCEGKFTDKFGQIHYLLLEPEKGKEFKKGDKVLIICRLSATRYLAERTFYV” it is “failed”.
The entry for “MTLGLTPKFVKIFLFVGLMLLSTSLAVIFPLNSVEGLGSGVTKTVLDNGLTVLIKEIPTAPVVSLQVWYRVGSRHEPKGENGIAHQLEHLMFKGTQSRPVQFGQLFYALGSSSNAFTSYDMTAYHHTVRADQLEPLLILEADRLRHTLITPDALESEKRVVISELQGYENSPEYRLSRAVMAALYPKHPYGLPVGGTASDVEQLTLAAVKSFYQQYYRPDNAVVVIAGNVRAARALELVKSTFGAIPQPPEPLISPPLPPPGAVSGQRIRLREPGSAPLLQILVPIPGITHPDQAALDVLDMLLSGGRSSYFYQELMETGQASSAYSYVAALQEGGWFEMGAIASPDQSLETIEQSIGKMLQQLAERPLSLAELQRAKQQLKANFILRNRDIDAQASQLANDETLTGDYRFSDRHLAAIEKVTAADVQRVVQTYFGRDRWIVGEFIPSEFADVELSGRPAVQTTAHNLIGEPVDPQTIAAYLPQGSAQAAPAVKNNGVETFTLENGLRVLLLVDRSTPTVTLAGRIDAGTAYDLLTQPGVANLTAANLLNGTRTKTALTLAQTLEDRGISLEFSAFRDGVDVEGYALASELPTLLATLGEVLQEATFPEAEFKLSQQRYLTALGLEADDPVRWGRRVLQETLYPAHHPLHPFATPESVQAIQRQDLLNFYRAAYRPDRTILTLVGDFDPLAVRSRLKDIFGPWQPPTAPLSLTFPAVSPPPQTLFRNAVIAGKSQAITYLGTPGIDRRHPRFYAAMLMNHILGGDTLASRLGTEIRDRQGLTYGIYSFFTASRQAGPFMIQLQTAPEDTAKAIQATLQLLREARRQGFTAAELEAAKRSLSNTYLVELANVDVVARTLLANASVDLPPQELQQFSDRLQQVSLAEVNQALRELIDPERLVIVTAGPAVSFSP” is “failed”.
Turning to “MTLKAGIVGIGMIGSDHLRRLANTVSGVEVVAVCDIVAGRAQAALDKYAIEAKDYNDYHDLINDKDVEVVIITASNEAHADVAVAALNANKYVFCEKPLAVTAADCQRVIEAEQKNGKRMVQIGFMRRYDKGYVQLKNIIDSGEIGQPLMVHGRHYNASTVPEYKTPQAIYETLIHEIDVMHWLLNEDYKTVKVYFPRQSSLVTTLRDPQLVVMETTSGINIVVEVFVNCQYGYDIHCDVTGEKGMAELPTVASAAVRKAAKYSTDILVDWKQRFIDAYDIEFQDFFDRLNAGLPPAGPTSWDGYLAAVTADACVKSQETGNTEIVELPSKPDFYK”, the protein production result is listed as “not failed”.
As to “MTLLRVGGVPEPFNEIFMQAQEGALPSTKLQVEFLGVAGGSGAALEMLAKCELDVAVTLTESAVARTKAAASGLAVHSVYVASPLAWGVAVSSKKTDWTDLNSLDAAVLRGESIRAGFSRRGSGSHLLLSVFASDRGWISTGIQNDILKSFECGSFDGLIQAAVAGDIDMFLWETCFTKECAATRQGLIRLVGEYAPSWPAFVLVCRDDAHVRAAVSELKREIEPLQRKFCTGEGLDILQNKYGFSLESAKLWLSRLQFAEPDEALSAEQWRSVERALELTAGSRSSSR”, the protein production result was “not failed”.
The entry for “MTLNAKGESNQILVDKEVHSTNLLLDIDEKPELFQGLLLSFQHVFAMFGATILVPLILGMPVSVALFASGCGTLIYQVATKFKVPVYLGSSFAYITAMALAMKQMHGDISAAQTGILFVGLIYVVVATVIKFVGNSWVDKILPPIIIGPMIIVIGLGLANSAVTNAGFVAKGDWRKMLVAVVTFLIAAFINTKGKGFIKIIPFLFAIIGGYILSIILGLVDLSPVEKAAWFELPKFYLPFKTGLFHSYKLYFGPEMLAILPISIVTIAENIGDHTVLGQICGRNFLKKPGLNRLLIGDGLATAFSALIGGPAETTYGENTGVIGMTRIASVTVIRNAAFIAIAFSFFGKFTALISTIPSAVLGGMAILLYGVIASNGLKVLIENRVNFAEVRNLIIASSMLVLGLGGAVLDLGALTLSGTALSAIVGIILNLILPKESMKS” is “not failed”; for “MTLNIYTEEWAPISFSVDGKPDGLAVQVVQEIQKRIDNQDPIKVVPWARGWKIITEQPNTVLFTMTRTAERERMFSLIGPVAVGTTNFYALKNSNLKINLEHHHHHH” it is “not failed”; for “MTLRTRITLLTAGLLLVAFLVLGFALEGLLRNFLYGSLRTDLKEAANQVVRLLNLGGQALLEAGLPPSLYAEVQLLPEEDPALLAREGGISLQKSPALGSQRLLLQEEAYRELLKRGEVWAYAELPREGHPLRLLVYARKVEVNLSGSVWKGALLVGRPTEDLEATLSQFARIYAGTALFVLLLSLFLARGLVARALEPLEWAARKAEAMSARPEPLPEPETRDEVAALVKALNGMLTRLQEAFEAQTRFLQDASHELRTPITAILGHVGYLLRRTPLTEAQRESLEVVKREAERMGKLVSDLLDLSQSGTWRIRPVPVRVLDLLEEVREEFAKSFDGAILVEAPEDLYVLGDPDRLHQVMANLVSNALKAGARHVWLRAFDLGDKAVVRVEDDGEGIPEEHLPHLFERFYRVDKARDRERGGSGLGLAIVKAILEAHGGEVWVESQVGKGTAFSFSLPASGPPPPPR” it is “failed”.
